Paper PMC6719084 (2019)

Key:
Assay in all cases: FP
BCL-2ΔC = biological target: BCL-2ΔC
MCL-1ΔNΔC = biological target: T1, MCL-1ΔNΔC
T1 chain: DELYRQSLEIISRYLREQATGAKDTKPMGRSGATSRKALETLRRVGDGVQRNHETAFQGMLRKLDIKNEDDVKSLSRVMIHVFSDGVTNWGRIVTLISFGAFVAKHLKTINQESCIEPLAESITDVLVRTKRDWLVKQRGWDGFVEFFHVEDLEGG

BCL-WΔC = biological target: T2, BCL-WΔC
T2 chain: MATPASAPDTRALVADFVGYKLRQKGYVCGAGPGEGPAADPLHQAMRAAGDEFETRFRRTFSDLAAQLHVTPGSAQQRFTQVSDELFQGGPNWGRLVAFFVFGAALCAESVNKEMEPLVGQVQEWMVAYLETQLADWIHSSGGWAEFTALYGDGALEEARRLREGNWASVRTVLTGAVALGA

BCL-XLΔC = biological target: BCL-XLΔC

B1: FITC-BIM_(A,cath,K)PA2 (BIMA, valine-citrulline cathepsin-cleavable linker, five lysines, DSPE-PEG(2000) lipid tail) (peptide)
chain: IWIAQELRRIGDEFNAYYARRVXKKKKK
modifications: fluorescein isothiocyanate (FITC) on the N-terminus; citrulline after the linker's valine (written X in the letters); DSPE-PEG(2000)-succinyl lipid tail on the side chain of the C-terminal lysine
Kd (BCL-2ΔC): 187 nM
Kd (MCL-1ΔNΔC): 453 nM
Kd (BCL-WΔC): 247 nM
Kd (BCL-XLΔC): 165 nM
